From the RNAGym collection of RNA variant scans (doi:10.7554/elife.90254)

B1: LINE1-mini (parent)
chain: GGCAGAGCUCAACACAGCGUGGCAAAGUGGCUGUGGCUAGACUGCC

Variants of: B1
Assay: self-cleavage, relative activity (ratio to wild type); higher = more cleavage; in vitro, sequencing; the parent is a self-cleaving ribozyme

Row | Variant | self-cleavage
1 | G17C A24C | 0.19
2 | G5C G33U | 0.06
3 | G19C A24U | 0.6
4 | G29A C31G | 0.39
5 | A11U C23G | 0.11
6 | A14G U28C | 0.04
7 | A11U U28A | 0.11
8 | G29A G44U | 0.26
9 | A4U A11G | 0.04
10 | A26U A39C | 0.25
11 | G30U C37A | 0.08
12 | A12C A25U | 0.01
13 | G2C U34G | 0.12
14 | U20A G22A | 0.55
15 | U32G A39C | 0.09
16 | U32G A39U | 0.1
17 | A14C A16C | 0.08
18 | G19A C42A | 0.34
19 | G27A G36A | 0.09
20 | A14C A25C | 0.07
21 | G5C A14G | 0.04
22 | U38A | 0.47
23 | G17A G35A | 0.04
24 | C15G C45G | 0.08

Row | Variant | self-cleavage
25 | A4C A39U | 0.09
26 | G7A C23A | 0.15
27 | G35A C46U | 0.1
28 | A25G U28C | 0.84
29 | A6U U20A | 0.37
30 | A12C C42U | 0.01
31 | G1C C8A | 0.06
32 | G5A U43A | 0.05
33 | A25C C31G | 0.06
34 | G1A G19C | 1.28
35 | G29U C31A | 0.15
36 | G22C G36C | 0.25
37 | G30C G33A | 0.06
38 | A6G U9G | 0.17
39 | C15G U20C | 0.03
40 | C15G U20G | 0.03
41 | G17C C37U | 0.08
42 | U38C G40A | 0.07
43 | C3A U43C | 0.28
44 | A6U C46G | 0.41
45 | U28C C42U | 0.15
46 | U20G C37U | 0.06
47 | G17A G27C | 0.19
48 | A16C C45U | 0.07

Row | Variant | self-cleavage
49 | G1A U28G | 0.6
50 | A24C C45U | 0.7
51 | G17U C45A | 0.05
52 | G21C G27A | 0.84
53 | G19C U32G | 0.43
54 | U28G A41C | 0.04
55 | U28G A41G | 0.27
56 | G1C G5U | 0.02
57 | U32G G35C | 0.1
58 | G1A G5C | 0.08
59 | G21C C42A | 0.19
60 | G1U A39U | 0.2
61 | A12U U34A | 0.03
62 | G33U C37A | 0.07
63 | A11C G19A | 0.05
64 | G40U C46G | 0.06
65 | G19U A25G | 0.49
66 | U34G G36A | 0.07
67 | A11G G33A | 0.03
68 | C8U A11G | 0.03
69 | G17A U38G | 0.04
70 | C31G A39G | 0.03
71 | C10G C42A | 0.03
72 | G27U U38C | 0.58

Row | Variant | self-cleavage
73 | C18U A41G | 0.26
74 | U9C G17U | 0.04
75 | C18A G33U | 0.04
76 | C23A A25C | 0.61
77 | G7C C18A | 0.12
78 | C10G C31U | 0.05
79 | A24G A25G | 0.75
80 | C13A C45G | 0.09
81 | G19U C37U | 0.04
82 | A24U G40C | 0.11
83 | G7A A12G | 0.05
84 | A14U A39G | 0.06
85 | U9G A41U | 0.14
86 | G40C U43A | 0.06
87 | A4U G27C | 0.17
88 | U34C A39U | 0.07
89 | G1U A26G | 0.31
90 | A6C A41U | 0.1
91 | A11U A24G | 0.15
92 | G30A A39C | 0.4
93 | G22U G29A | 1.67
94 | G17U U20A | 0.16
95 | C31G G33C | 0.03
96 | A25U G27U | 0.74

Row | Variant | self-cleavage
97 | U9G A14C | 0.2
98 | U9A G17C | 0.06
99 | A11U G36C | 0.03
100 | A4G G5U | 0.16
101 | A16G G36U | 0.04
102 | U20G U28C | 0.67
103 | G7U G35U | 0.1
104 | A25U A26G | 0.71
105 | U34C C45A | 0.05
106 | G1A C3U | 0.47
107 | C31U G33A | 0.09
108 | A11U U43A | 0.02
109 | G1A A4U | 0.27
110 | A26C C37A | 0.05
111 | A12U A25G | 0.4
112 | C13G U28G | 0.35
113 | U32A A39U | 0.06
114 | U20A C23G | 0.69
115 | A14G A26C | 0.67
116 | C15G A41C | 0.04
117 | G2U G29C | 0.04
118 | A14G C45U | 0.63
119 | G19A G36A | 0.18
120 | G27A C42A | 0.21

Row | Variant | self-cleavage
121 | A25C C42G | 0.04
122 | A6C C42U | 0.23
123 | G22C A25C | 0.31
124 | A24G U28C | 0.72
125 | A16U C31U | 0.03
126 | G27C C46G | 0.59
127 | G30C G36U | 0.11
128 | G36U C42G | 0.03
129 | U9A C10A | 0.04
130 | C13A G19C | 0.06
131 | G30A C46U | 1.33
132 | U20C G35U | 0.1
133 | U28A U32C | 0.18
134 | A11U G30C | 0.13
135 | G33U A41G | 0.07
136 | A24C C46U | 0.64
137 | G5A U28A | 0.12
138 | A4C G30C | 0.07
139 | G1A U38C | 0.84
140 | G33C C37G | 0.04
141 | C10A A16C | 0.04
142 | G29A U43C | 0.08
143 | A4G C15U | 0.65
144 | G36A C42U | 0.15

Row | Variant | self-cleavage
145 | C15U A25G | 0.17
146 | U20G G29U | 0.48
147 | G7C U20G | 0.12
148 | C8U C13A | 0.5
149 | C8U G40A | 0.41
150 | U9C G40U | 0.03
151 | A11G A39U | 0.05
152 | A4C A41U | 0.23
153 | C23A U43G | 0.02
154 | U9A C13A | 0.2
155 | C3U U9A | 0.29
156 | C3U U9C | 0.07
157 | U9C U28C | 0.05
158 | A4G A14U | 0.24
159 | U32C C45G | 0.03
160 | A4U A24U | 0.21
161 | A39U C45U | 0.85
162 | C3A A6G | 0.2
163 | G35A C37U | 0.06
164 | G2A G21A | 2.98
165 | A6C G36A | 0.31
166 | G2A G30C | 0.51
167 | G40A C46G | 0.11
